Three substances from US20240139115A1, “Novel Method for Preparation of Nanoparticles Comprising Cell Penetrating Peptides” (CELLPEPT SWEDEN AB, priority 2021, published 2024) can be followed below.

Where no end group is shown, it is not given here. [ ]: non-standard residue; d: D form. The star is where a group is joined. Stearoyl = CCCCCCCCCCCCCCCCCC(=O)*; R8 = C=CCCCCCC[C@@](C)(N)C(=O)O; Orn = NCCC[C@H](N)C(=O)O

The test system of series [1] is human primary keratinocytes. As to the kind of experiment: Transfection with EGFP-coding mRNA/CPP complexes. In kind it is cell-based. The settings on record: CPP solutions in mixture of organic solvents; 200 ng mRNA, 520 nM CPP, 20 h; FIG. 3. As to the method: The complexes of 200 ng of mRNA with 520 nM CPP were added into culture medium above cells per well of 24-well plate for 20 h. For the delivery and expression of EGFP, mRNA complexes were assembled with NF71 (dissolved at 1 mM concentration in ethanol/DMSO/trimethylene carbonate 78/20/2) or PF14 (PF14o—dissolved at 1 mM concentration in ethanol/DMSO, or in water—PF14w).
The CPP nanoparticles with mRNA are formed in a similar manner with pDNA. mRNA at concentration 10 μg/ml is complexed with 10 μM PF14 CPP in Milli-Qwater. If required, Ca or Mg ions are incorporated in CPP-mRNA nanoparticles as described above. Unlike other particle solutions described above, CPP-mRNA 10× solutions are directly added into growth medium where cells have been incubated. The preferred N/P ratio (“charge ratio”) of CPP to mRNA is 2. Depending on the charge of used CPP, type of cells and experiment, N/P ratio can be varied in the range 1.5 to 4. For delivery of mRNA into human primary cells, preferentially Mg ions are incorporated in CPP nanoparticles.

Series [2] is described as follows: Dynamic light scattering (DLS) size and polydispersity of CPP particles after dilution in water. In kind it is physicochemical. As to conditions: PF14 in isopropanol/DMSO/trimethylene carbonate (90/9/1), further 10-fold dilution. On the procedure: (§1) The diameter and zeta potential of CPP nanoparticles may be measured using dynamic light scattering (DLS) or nanoparticle tracking analysis system (NTA) (1), (4) (using 0.01 mM peptide). The morphology of NP is analysed by transmission electron microscopy (TEM) (11), scanning electron microscopy (SEM) or atomic force microscopy (AFM) using 0.1 or 0.01 mM peptide solution.
The physical characteristics (diameter and zeta-potential) of the peptide micelles/aggregates/nanoparticles were analysed by dynamic light scattering (DLS) using a ZetaView (Particle Metrix, Germany) or ZetasizerNano ZS apparatus (Malvern Instruments, UK) at 10 μM concentration in water.
DLS analysis of the size of CPP particles forming after 100-fold dilution of 1 mM peptide solution in Milli-Q water or organic solvents (ambient temperature) is provided in Table 1.
The optimal size of nanoparticles to be used for drug delivery in vivo is in range of 100 nm (between 10 and 200 nm), and the lack of large aggregates is highly essential. In order to analyse the size of CPP clusters that form in water, DLS traces were measured by Malvern Zetasizer Nano ZS. Four consecutive measurements were performed with each sample for the calculation of the size and polydispersity of the forming CPP particles.

The nature of series [3]: Transmission electron microscopy (TEM) of size and shape of CPP particles. In kind it is physicochemical. On the procedure: as §1
Analysis of the size and shape of CPP nanoparticles and their complexes with cargo nucleic acids by transmission electron microscopy (TEM) confirmed data from DLS analysis. Depending on the solvent used for preparation of 1 mM peptide solutions, the particles of CPP were largely different.

In a further series the test system is HeLa pLuc705 cells. Description: Splicing correction luciferase assay (Kole's assay). As to conditions: hPep3 dissolved in the mixture of dimethyl sulfoxide; 100 nM SCO-705, 500 nM peptide, 24 h; FIG. 5.

As to “NickFect 71 (Stearoyl-HHYHHGXILLKALKALAKAIL-NH2; not fully specified (residue 7); printed as HHYHHGObILLKALKALAKAIL; also: Gly6 joined to the Orn7 side-chain delta-amino instead of its alpha-amino) [NF71]”, the “transfection of EGFP mRNA and expression of EGFP” value in series [1] is given as “enable transfection”.
Regarding “PepFect 14 (Stearoyl-AGYLLGKLL[Orn][Orn]LAAAAL[Orn][Orn]LL-NH2) [PF14, Stearyl (C18)-…OOLAAAALOOLL, C-terminal amide]”, the “average diameter of uniform NP” value in series [2] is about 100 nm. In addition, in series [1], the “transfection of EGFP mRNA and expression of EGFP” value is reported as “enable transfection”. Also, the “aggregates present in specimen” value in series [3] (PF14 in isopropanol/DMSO/trimethylene carbonate (90/9/1) at 1 mM, diluted in water to 0.1 mM, TEM) is “No aggregates”. The “diameter of spherical nanoparticles” value in series [3] (PF14 in isopropanol/DMSO/trimethylene carbonate (90/9/1) at 1 mM, quick dilution in water to 0.1 mM, TEM) is given as 40-60 nm. Further, the “larger PF14 particles observed in TEM images” value in series [3] (PF14 in isopropanol/DMSO/trimethylene carbonate (90/9/1), 0.1 mM in water) is 100-150 nm.
On to “hPep3 (L[R8][dK]LAKA[R8]AKLLKA[R8]AKAL; staple (positions not given here); also: three R8 olefin residues, staple pairing not given here)”, for which the “efficiency of nanoparticles with SCO cargo compared with water-dissolved hPep3” value in the series with HeLa pLuc705 cells is “same efficiency”.
